This assay addresses xrcc4_human XRCC4 (UniProt Q13426).

Sequence of xrcc4_human XRCC4 (Q13426 whole entry): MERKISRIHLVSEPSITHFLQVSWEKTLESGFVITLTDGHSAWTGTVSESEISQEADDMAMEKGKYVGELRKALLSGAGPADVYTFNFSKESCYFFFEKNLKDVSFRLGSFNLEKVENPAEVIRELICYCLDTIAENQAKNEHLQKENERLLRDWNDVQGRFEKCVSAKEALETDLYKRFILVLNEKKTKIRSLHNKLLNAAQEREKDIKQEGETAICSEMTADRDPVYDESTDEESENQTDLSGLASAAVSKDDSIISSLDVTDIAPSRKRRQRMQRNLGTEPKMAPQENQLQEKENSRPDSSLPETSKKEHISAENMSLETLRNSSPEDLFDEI

Take “Bifunctional polynucleotide phosphatase/kinase (Homo sapiens), Q96T60 R35A”: the “effect of a mutation on the interaction” value is given as “disrupting interaction”.

Values taken from IntAct's records for PubMed 15385968.
